B1: GLS3000 H27dA one-arm antibody (H chain CE115HA000) (antibody, human IgG1, kappa, L234A L235A, N297A, name in Kabat numbering)
heavy: QVQLVESGGGVVQPGRSLRLSCAASGFTFSNAWMHWVRQAPGKGLEWVAQIKAKSNNYATYYAESVKGRFTISRDDSKNSLYLQMNSLKTEDTAVYYCRYVHYGAYYGVDAWGQGTTVTVSSASTKGPSVFPLAPSSKSTSGGTAALGCLVKDYFPEPVTVSWNSGALTSGVHTFPAVLQSSGLYSLSSVVTVPSSSLGTQTYICNVNHKPSNTKVDKKVEPKSCDKTHTCPPCPAPEAAGGPSVFLFPPKPKDTLMISRTPEVTCVVVDVSHEDPEVKFNWYVDGVEVHNAKTKPREEQYASTYRVVSVLTVLHQDWLNGKEYKCKVSNKALPAPIEKTISKAKGQPREPQVYTLPPSRCELTKNQVSLSCAVKGFYPSDIAVEWESNGQPENNYKTTPPVLDSDGSFFLVSKLTVDKSRWQQGNVFSCSVMHEALHNHYTQKSLSLSPDYKDDDDK
chain: EPKSSDKTHTCPPCPAPELLGGPSVFLFPPKPKDTLMISRTPEVTCVVVDVSHEDPEVKFNWYVDGVEVHNAKTKPREEQYNSTYRVVSVLTVLHQDWLNGKEYKCKVSNKALPAPIEKTISKAKGQPREPQVCTLPPSRDELTKNQVSLWCLVKGFYPSDIAVEWESNGQPENNYKTTPPVLDSDGSFFLYSKLTVDKSRWQQGNVFSCSVMHEALHNRYTQKSLSLSP
light: DIVMTQSPLSLPVTPGEPASISCRSSQSLVASNRNTYLHWYQQKPGQAPRLLIYKVSNRFSGVPDRFSGSGSGTDFTLKISRVEAEDVGVYYCGQGTQVPYTFGQGTKLEIKRTVAAPSVFIFPPSDEQLKSGTASVVCLLNNFYPREAKVQWKVDNALQSGNSQESVTEQDSKDSTYSLSSTLTLSKADYEKHKVYACEVTHQGLSSPVTKSFNRGEC
notes: one-arm antibody
B2: GLS3000 H27dD one-arm antibody (H chain CE115HA000) (antibody, human IgG1, kappa, L234A L235A, N297A, name in Kabat numbering)
heavy: QVQLVESGGGVVQPGRSLRLSCAASGFTFSNAWMHWVRQAPGKGLEWVAQIKAKSNNYATYYAESVKGRFTISRDDSKNSLYLQMNSLKTEDTAVYYCRYVHYGAYYGVDAWGQGTTVTVSSASTKGPSVFPLAPSSKSTSGGTAALGCLVKDYFPEPVTVSWNSGALTSGVHTFPAVLQSSGLYSLSSVVTVPSSSLGTQTYICNVNHKPSNTKVDKKVEPKSCDKTHTCPPCPAPEAAGGPSVFLFPPKPKDTLMISRTPEVTCVVVDVSHEDPEVKFNWYVDGVEVHNAKTKPREEQYASTYRVVSVLTVLHQDWLNGKEYKCKVSNKALPAPIEKTISKAKGQPREPQVYTLPPSRCELTKNQVSLSCAVKGFYPSDIAVEWESNGQPENNYKTTPPVLDSDGSFFLVSKLTVDKSRWQQGNVFSCSVMHEALHNHYTQKSLSLSPDYKDDDDK
chain: EPKSSDKTHTCPPCPAPELLGGPSVFLFPPKPKDTLMISRTPEVTCVVVDVSHEDPEVKFNWYVDGVEVHNAKTKPREEQYNSTYRVVSVLTVLHQDWLNGKEYKCKVSNKALPAPIEKTISKAKGQPREPQVCTLPPSRDELTKNQVSLWCLVKGFYPSDIAVEWESNGQPENNYKTTPPVLDSDGSFFLYSKLTVDKSRWQQGNVFSCSVMHEALHNRYTQKSLSLSP
light: DIVMTQSPLSLPVTPGEPASISCRSSQSLVDSNRNTYLHWYQQKPGQAPRLLIYKVSNRFSGVPDRFSGSGSGTDFTLKISRVEAEDVGVYYCGQGTQVPYTFGQGTKLEIKRTVAAPSVFIFPPSDEQLKSGTASVVCLLNNFYPREAKVQWKVDNALQSGNSQESVTEQDSKDSTYSLSSTLTLSKADYEKHKVYACEVTHQGLSSPVTKSFNRGEC
notes: one-arm antibody
B3: GLS3000 H27dE one-arm antibody (H chain CE115HA000) (antibody, human IgG1, kappa, L234A L235A, N297A, name in Kabat numbering)
heavy: QVQLVESGGGVVQPGRSLRLSCAASGFTFSNAWMHWVRQAPGKGLEWVAQIKAKSNNYATYYAESVKGRFTISRDDSKNSLYLQMNSLKTEDTAVYYCRYVHYGAYYGVDAWGQGTTVTVSSASTKGPSVFPLAPSSKSTSGGTAALGCLVKDYFPEPVTVSWNSGALTSGVHTFPAVLQSSGLYSLSSVVTVPSSSLGTQTYICNVNHKPSNTKVDKKVEPKSCDKTHTCPPCPAPEAAGGPSVFLFPPKPKDTLMISRTPEVTCVVVDVSHEDPEVKFNWYVDGVEVHNAKTKPREEQYASTYRVVSVLTVLHQDWLNGKEYKCKVSNKALPAPIEKTISKAKGQPREPQVYTLPPSRCELTKNQVSLSCAVKGFYPSDIAVEWESNGQPENNYKTTPPVLDSDGSFFLVSKLTVDKSRWQQGNVFSCSVMHEALHNHYTQKSLSLSPDYKDDDDK
chain: EPKSSDKTHTCPPCPAPELLGGPSVFLFPPKPKDTLMISRTPEVTCVVVDVSHEDPEVKFNWYVDGVEVHNAKTKPREEQYNSTYRVVSVLTVLHQDWLNGKEYKCKVSNKALPAPIEKTISKAKGQPREPQVCTLPPSRDELTKNQVSLWCLVKGFYPSDIAVEWESNGQPENNYKTTPPVLDSDGSFFLYSKLTVDKSRWQQGNVFSCSVMHEALHNRYTQKSLSLSP
light: DIVMTQSPLSLPVTPGEPASISCRSSQSLVESNRNTYLHWYQQKPGQAPRLLIYKVSNRFSGVPDRFSGSGSGTDFTLKISRVEAEDVGVYYCGQGTQVPYTFGQGTKLEIKRTVAAPSVFIFPPSDEQLKSGTASVVCLLNNFYPREAKVQWKVDNALQSGNSQESVTEQDSKDSTYSLSSTLTLSKADYEKHKVYACEVTHQGLSSPVTKSFNRGEC
notes: one-arm antibody
B4: GLS3000 F55A one-arm antibody (H chain CE115HA000) (antibody, human IgG1, kappa, L234A L235A, N297A, name in Kabat numbering)
heavy: QVQLVESGGGVVQPGRSLRLSCAASGFTFSNAWMHWVRQAPGKGLEWVAQIKAKSNNYATYYAESVKGRFTISRDDSKNSLYLQMNSLKTEDTAVYYCRYVHYGAYYGVDAWGQGTTVTVSSASTKGPSVFPLAPSSKSTSGGTAALGCLVKDYFPEPVTVSWNSGALTSGVHTFPAVLQSSGLYSLSSVVTVPSSSLGTQTYICNVNHKPSNTKVDKKVEPKSCDKTHTCPPCPAPEAAGGPSVFLFPPKPKDTLMISRTPEVTCVVVDVSHEDPEVKFNWYVDGVEVHNAKTKPREEQYASTYRVVSVLTVLHQDWLNGKEYKCKVSNKALPAPIEKTISKAKGQPREPQVYTLPPSRCELTKNQVSLSCAVKGFYPSDIAVEWESNGQPENNYKTTPPVLDSDGSFFLVSKLTVDKSRWQQGNVFSCSVMHEALHNHYTQKSLSLSPDYKDDDDK
chain: EPKSSDKTHTCPPCPAPELLGGPSVFLFPPKPKDTLMISRTPEVTCVVVDVSHEDPEVKFNWYVDGVEVHNAKTKPREEQYNSTYRVVSVLTVLHQDWLNGKEYKCKVSNKALPAPIEKTISKAKGQPREPQVCTLPPSRDELTKNQVSLWCLVKGFYPSDIAVEWESNGQPENNYKTTPPVLDSDGSFFLYSKLTVDKSRWQQGNVFSCSVMHEALHNRYTQKSLSLSP
light: DIVMTQSPLSLPVTPGEPASISCRSSQSLVHSNRNTYLHWYQQKPGQAPRLLIYKVSNRASGVPDRFSGSGSGTDFTLKISRVEAEDVGVYYCGQGTQVPYTFGQGTKLEIKRTVAAPSVFIFPPSDEQLKSGTASVVCLLNNFYPREAKVQWKVDNALQSGNSQESVTEQDSKDSTYSLSSTLTLSKADYEKHKVYACEVTHQGLSSPVTKSFNRGEC
notes: one-arm antibody
B5: GLS3000 H27dF one-arm antibody (H chain CE115HA000) (antibody, human IgG1, kappa, L234A L235A, N297A, name in Kabat numbering)
heavy: QVQLVESGGGVVQPGRSLRLSCAASGFTFSNAWMHWVRQAPGKGLEWVAQIKAKSNNYATYYAESVKGRFTISRDDSKNSLYLQMNSLKTEDTAVYYCRYVHYGAYYGVDAWGQGTTVTVSSASTKGPSVFPLAPSSKSTSGGTAALGCLVKDYFPEPVTVSWNSGALTSGVHTFPAVLQSSGLYSLSSVVTVPSSSLGTQTYICNVNHKPSNTKVDKKVEPKSCDKTHTCPPCPAPEAAGGPSVFLFPPKPKDTLMISRTPEVTCVVVDVSHEDPEVKFNWYVDGVEVHNAKTKPREEQYASTYRVVSVLTVLHQDWLNGKEYKCKVSNKALPAPIEKTISKAKGQPREPQVYTLPPSRCELTKNQVSLSCAVKGFYPSDIAVEWESNGQPENNYKTTPPVLDSDGSFFLVSKLTVDKSRWQQGNVFSCSVMHEALHNHYTQKSLSLSPDYKDDDDK
chain: EPKSSDKTHTCPPCPAPELLGGPSVFLFPPKPKDTLMISRTPEVTCVVVDVSHEDPEVKFNWYVDGVEVHNAKTKPREEQYNSTYRVVSVLTVLHQDWLNGKEYKCKVSNKALPAPIEKTISKAKGQPREPQVCTLPPSRDELTKNQVSLWCLVKGFYPSDIAVEWESNGQPENNYKTTPPVLDSDGSFFLYSKLTVDKSRWQQGNVFSCSVMHEALHNRYTQKSLSLSP
light: DIVMTQSPLSLPVTPGEPASISCRSSQSLVFSNRNTYLHWYQQKPGQAPRLLIYKVSNRFSGVPDRFSGSGSGTDFTLKISRVEAEDVGVYYCGQGTQVPYTFGQGTKLEIKRTVAAPSVFIFPPSDEQLKSGTASVVCLLNNFYPREAKVQWKVDNALQSGNSQESVTEQDSKDSTYSLSSTLTLSKADYEKHKVYACEVTHQGLSSPVTKSFNRGEC
notes: one-arm antibody
B6: GLS3000 F55D one-arm antibody (H chain CE115HA000) (antibody, human IgG1, kappa, L234A L235A, N297A, name in Kabat numbering)
heavy: QVQLVESGGGVVQPGRSLRLSCAASGFTFSNAWMHWVRQAPGKGLEWVAQIKAKSNNYATYYAESVKGRFTISRDDSKNSLYLQMNSLKTEDTAVYYCRYVHYGAYYGVDAWGQGTTVTVSSASTKGPSVFPLAPSSKSTSGGTAALGCLVKDYFPEPVTVSWNSGALTSGVHTFPAVLQSSGLYSLSSVVTVPSSSLGTQTYICNVNHKPSNTKVDKKVEPKSCDKTHTCPPCPAPEAAGGPSVFLFPPKPKDTLMISRTPEVTCVVVDVSHEDPEVKFNWYVDGVEVHNAKTKPREEQYASTYRVVSVLTVLHQDWLNGKEYKCKVSNKALPAPIEKTISKAKGQPREPQVYTLPPSRCELTKNQVSLSCAVKGFYPSDIAVEWESNGQPENNYKTTPPVLDSDGSFFLVSKLTVDKSRWQQGNVFSCSVMHEALHNHYTQKSLSLSPDYKDDDDK
chain: EPKSSDKTHTCPPCPAPELLGGPSVFLFPPKPKDTLMISRTPEVTCVVVDVSHEDPEVKFNWYVDGVEVHNAKTKPREEQYNSTYRVVSVLTVLHQDWLNGKEYKCKVSNKALPAPIEKTISKAKGQPREPQVCTLPPSRDELTKNQVSLWCLVKGFYPSDIAVEWESNGQPENNYKTTPPVLDSDGSFFLYSKLTVDKSRWQQGNVFSCSVMHEALHNRYTQKSLSLSP
light: DIVMTQSPLSLPVTPGEPASISCRSSQSLVHSNRNTYLHWYQQKPGQAPRLLIYKVSNRDSGVPDRFSGSGSGTDFTLKISRVEAEDVGVYYCGQGTQVPYTFGQGTKLEIKRTVAAPSVFIFPPSDEQLKSGTASVVCLLNNFYPREAKVQWKVDNALQSGNSQESVTEQDSKDSTYSLSSTLTLSKADYEKHKVYACEVTHQGLSSPVTKSFNRGEC
notes: one-arm antibody

Molecular target: T1, CD3 epsilon homodimer protein (UniProt P07766 23-126)
T1 construct: also called CD3 (CD3 epsilon)
T1 sequence (P07766 23-126): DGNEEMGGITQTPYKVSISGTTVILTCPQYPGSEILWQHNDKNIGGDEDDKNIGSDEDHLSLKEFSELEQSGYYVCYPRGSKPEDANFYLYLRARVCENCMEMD
Assay: SPR, CD3e homodimer on chip;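 also: surface plasmon resonance at 25 degrees C, antibodies flowed as analyte over CD3 epsilon homodimer amine-coupled to a CM4 chip, running buffer HBS-EP+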

Row | Binder | ratio of amounts bound (altered form / unaltered GLS3000 antibody)
1 | B1 | 0.48
2 | B2 | 0.22
3 | B3 | 0.23
4 | B4 | 1.13
5 | B5 | 0.63
6 | B6 | 0.65

From patent US20240270846A1 (published 2024)
